The values below come from patent publication US20180185504A1 (Regeneron, published 2018).

The target in assay [1] is T1, human PRLR on cells (endogenous on T47D, T47D#11, MCF7); introduced in HEK293/hPRLR/STAT5-Luc, 293/hPRLR, … (human, UniProt P16471 25-622).
T1 sequence: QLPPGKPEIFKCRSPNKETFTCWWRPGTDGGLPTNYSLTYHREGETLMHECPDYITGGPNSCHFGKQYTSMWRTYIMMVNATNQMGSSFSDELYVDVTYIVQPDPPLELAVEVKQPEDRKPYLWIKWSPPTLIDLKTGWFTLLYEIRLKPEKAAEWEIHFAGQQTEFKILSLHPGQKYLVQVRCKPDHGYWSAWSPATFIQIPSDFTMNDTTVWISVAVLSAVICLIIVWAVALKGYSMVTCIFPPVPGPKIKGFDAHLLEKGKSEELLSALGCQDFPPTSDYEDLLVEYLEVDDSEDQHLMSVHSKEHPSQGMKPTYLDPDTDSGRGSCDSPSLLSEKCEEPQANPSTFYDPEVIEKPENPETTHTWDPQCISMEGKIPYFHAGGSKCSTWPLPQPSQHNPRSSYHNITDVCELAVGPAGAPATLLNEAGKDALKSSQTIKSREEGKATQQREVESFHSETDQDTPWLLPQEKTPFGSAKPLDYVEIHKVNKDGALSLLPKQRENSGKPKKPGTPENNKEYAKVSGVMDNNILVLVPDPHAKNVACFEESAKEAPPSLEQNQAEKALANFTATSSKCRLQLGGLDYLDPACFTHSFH
The assay can be described thus: cell-based or functional assay.

Assay [2] has as its target T2, mfPRLR.mmh (soluble monomeric macaca fascicularis PRLR) (macaca fascicularis).
T2 construct: soluble monomeric PRLR protein; also called macaca fascicularis (mf) PRLR.mmh; monkey PRLR
T2 chain: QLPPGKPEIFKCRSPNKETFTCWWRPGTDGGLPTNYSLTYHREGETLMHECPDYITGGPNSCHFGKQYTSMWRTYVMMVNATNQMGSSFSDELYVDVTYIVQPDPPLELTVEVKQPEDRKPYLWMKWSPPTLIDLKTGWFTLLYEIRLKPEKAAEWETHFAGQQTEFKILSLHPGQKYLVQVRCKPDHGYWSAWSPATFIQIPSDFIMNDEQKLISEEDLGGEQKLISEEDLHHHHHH
The assay can be described thus: SPR (Biacore), antibody capture, 37 C. The procedure: (§1) Measurements were conducted on a T200 Biacore instrument. Kinetic association (kₐ) and dissociation (kd) rate constants were determined by processing and fitting the data to a 1:1 binding model using Scrubber 2.0 curve fitting software.
(Surface plasmon resonance follows binding to a sensor surface in real time, without labels.)

The target of assay [3] is T3, hPRLR.mmh (soluble monomeric human PRLR) (human).
T3 construct: soluble monomeric PRLR protein
T3 chain: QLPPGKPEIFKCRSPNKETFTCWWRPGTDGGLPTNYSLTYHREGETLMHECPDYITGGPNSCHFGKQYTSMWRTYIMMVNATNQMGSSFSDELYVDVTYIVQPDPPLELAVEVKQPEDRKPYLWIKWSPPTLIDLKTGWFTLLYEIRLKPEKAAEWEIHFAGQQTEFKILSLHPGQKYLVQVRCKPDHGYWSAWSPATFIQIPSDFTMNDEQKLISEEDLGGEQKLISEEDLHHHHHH
In words: SPR (Biacore), antibody capture, 37 C. The procedure:
as §1

Assay [4] concerns the target T4, hPRLR.mFc (soluble dimeric human PRLR) (human).
T4 construct: dimeric PRLR construct
T4 chain: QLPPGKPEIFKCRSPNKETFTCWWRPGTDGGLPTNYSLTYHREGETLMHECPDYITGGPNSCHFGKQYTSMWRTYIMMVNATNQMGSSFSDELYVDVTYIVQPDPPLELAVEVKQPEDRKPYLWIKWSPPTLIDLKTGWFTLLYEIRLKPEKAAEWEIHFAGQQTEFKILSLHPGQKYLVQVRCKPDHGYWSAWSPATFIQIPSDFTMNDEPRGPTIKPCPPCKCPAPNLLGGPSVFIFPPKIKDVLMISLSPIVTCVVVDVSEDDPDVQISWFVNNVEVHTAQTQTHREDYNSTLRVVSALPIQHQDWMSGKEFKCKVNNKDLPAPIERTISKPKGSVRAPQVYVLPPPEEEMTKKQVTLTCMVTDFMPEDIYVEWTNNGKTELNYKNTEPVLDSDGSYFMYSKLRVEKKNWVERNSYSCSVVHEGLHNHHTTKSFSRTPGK
In words: SPR (Biacore), antibody capture, 37 C. The procedure:
as §1

The target of assay [5] is T5, monkey macaca fascicularis PRLR construct with an HA tag on HEK293/mfPRLR cells (macaca fascicularis, UniProt A0A2K5WXK1 25-619).
T5 construct: stably transfected into HEK293
T5 sequence: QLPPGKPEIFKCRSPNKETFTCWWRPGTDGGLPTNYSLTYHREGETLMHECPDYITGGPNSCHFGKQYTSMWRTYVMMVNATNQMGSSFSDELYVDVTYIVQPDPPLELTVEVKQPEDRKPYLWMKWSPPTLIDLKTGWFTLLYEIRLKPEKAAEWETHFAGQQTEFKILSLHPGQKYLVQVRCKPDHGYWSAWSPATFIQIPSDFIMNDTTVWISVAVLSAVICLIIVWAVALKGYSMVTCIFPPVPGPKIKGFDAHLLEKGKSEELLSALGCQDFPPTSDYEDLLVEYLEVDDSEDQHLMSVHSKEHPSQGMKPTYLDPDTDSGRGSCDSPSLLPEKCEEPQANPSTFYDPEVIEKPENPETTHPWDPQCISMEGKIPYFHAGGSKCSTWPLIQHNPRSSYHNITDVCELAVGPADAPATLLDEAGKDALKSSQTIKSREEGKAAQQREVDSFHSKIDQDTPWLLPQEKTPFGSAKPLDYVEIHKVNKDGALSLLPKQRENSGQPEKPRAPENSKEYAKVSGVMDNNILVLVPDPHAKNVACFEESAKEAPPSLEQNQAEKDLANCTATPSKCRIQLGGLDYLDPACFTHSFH
In words: FACS on HEK293/mfPRLR cells.

B1: H1H6975N (antibody, human IgG1, V domains shown)
VH: EVHLVESGGGLVQPGGSLRLSCAASGFTFSSYEMNWVRQTPGKGLEWISHISSRSVIIYYADSVKGRFTISRDNAKNSLFLQMNSLRAEDTAVYFCAGITIFGIPEYWGQGTLVTVSS
VL: EIVLTQSPATLSLSPGERATLSCRASQSVSSYFAWYQQKPGQAPRLLIYDASSRATGIPTRFSGSGSGTDFTLTISSLEPEDFAVYYCQQRSSWPITFGQGTRLEIK
notes: also called H2M6975N
The Kd is the concentration at which binding is half-saturated. For orientation: koff means the first-order rate constant of dissociation. For orientation: kon means the second-order rate constant of association. For the molecule B1, in assay [1], the “IC50 of Blocking 5 nM PRL [M] (STAT5-Luc reporter, HEK293/hPRLR/STAT5-Luc cells)” value was found to be 2.41e-10 M and the “Percent Blocking at 100 nM Antibody (STAT5-Luc reporter)” value (“Percent Blocking at 100 nM Antibody” below) came to 100%. In assay [2], binding was put at a Kd of 2.27 nM, the “T 1/2” value was 36.4 min, the koff came to 0.000317 s⁻¹ and the kon is 140000 M⁻¹ s⁻¹. In assay [3], binding was characterised by a dissociation constant (Kd) of 1.29 nM, the “T 1/2” value came out at 42.3 min, the off-rate constant (koff) was found to be 0.000273 s⁻¹ and the kon turned out to be 211000 M⁻¹ s⁻¹. For the same molecule, in assay [4], binding was put at a Kd of 0.184 nM, the “T 1/2” value worked out at 163 min, the koff turned out to be 7.09e-05 s⁻¹ and the kon came out at 386000 M⁻¹ s⁻¹. The “FACS Cell Binding (Fold Above Background)” value in assay [5] turned out to be 29 fold.

B2: H1H6803P (antibody, human IgG1, V domains shown)
VH: EVQLVESGGGVVRPGGSLRLSCAASGFKFDDYGMTWVRHVPGKGLEWVSGINWNGGRTGYTDSVKGRFTISRDNAKNSLYLQMNSLRAEDTALYHCAGARRDAFDIWGQGTMVTVSS
VL: DIQMTQSPSSLSASIGDRVTITCRASQNIIKYLNWYQQNAGKAPKLLIYTASSLQSGVPSRFSGSGSGTDFTLTISSLQPEDFATYYCQQSSSSPYTFGQGTKLEIK
notes: human IgG1 Fc (H1H)
On to B2, for which, in assay [1], the “IC50 of Blocking 5 nM PRL [M] (STAT5-Luc reporter, HEK293/hPRLR/STAT5-Luc cells)” value was 6.27e-10 M and the “Percent Blocking at 100 nM Antibody” value stood at 100%. Further, in assay [2], the dissociation constant Kd came out at 7.28 nM, the “T 1/2” value is 18 min, the koff came out at 0.000636 s⁻¹ and the kon stood at 87300 M⁻¹ s⁻¹. Besides, in assay [3], the Kd came out at 2.83 nM, the “T 1/2” value came out at 32 min, the off-rate (koff) is 0.000364 s⁻¹ and the kon was found to be 129000 M⁻¹ s⁻¹. In assay [4], the Kd was found to be 0.461 nM, the “T 1/2” value came to 186 min, the koff was 6.2e-05 s⁻¹ and the kon was found to be 134000 M⁻¹ s⁻¹. Also, in assay [5], the “FACS Cell Binding (Fold Above Background)” value is 28 fold.

B3: H1H6800P (antibody, human IgG1, V domains shown)
VH: EVQLVESGGGLVQPGRSLRLSCAASGFTFDGYAMHWVRQGPGKGLEWVSGISWYSDTLGYADSVKGRFTISRDNAKNSLYLQMNSLRTEDTAFYYCAKISSSGWAFDYWGQGTLVTVSS
VL: EIVLTQSPGTLSLSPGERATLSCRASHSVSSAYLAWYQQKPGQTPRLLIYGTSSRATGIPDRFSGSGSGTDFTLTISRLEPEDFAVYYCQQYGSSPLFTFGPGTKVDIK
notes: human IgG1 Fc (H1H)
As for B3, in assay [1], the “IC50 of Blocking 5 nM PRL [M] (STAT5-Luc reporter, HEK293/hPRLR/STAT5-Luc cells)” value amounted to 3.55e-10 M and the “Percent Blocking at 100 nM Antibody” value came to 100%. Also, in assay [2], the Kd was 2.48 nM, the “T 1/2” value stood at 11 min, the koff stood at 0.00109 s⁻¹ and the kon stood at 439000 M⁻¹ s⁻¹. For the same molecule, in assay [3], binding was characterised by a dissociation constant (Kd) of 1.47 nM, the “T 1/2” value amounted to 10 min, the koff was determined as 0.00119 s⁻¹ and the kon worked out at 808000 M⁻¹ s⁻¹. In assay [4], the affinity, expressed as Kd, was 0.229 nM; the “T 1/2” value came out at 79 min; the off-rate (koff) came out at 0.000147 s⁻¹; the kon is 644000 M⁻¹ s⁻¹. For the same molecule, the “FACS Cell Binding (Fold Above Background)” value in assay [5] worked out at 29 fold.
